Each block holds one binder with its values, some of them ahead of it.
What was measured:
FGF2 [1] = biological target: T1, FGF2 (UniProt P09038 143-288, limits assumed); test: ELISA binding curves, FIG. 6B
T1 construct: also called basic FGF; basic fibroblast growth factor
Method: (§1) Heparin (50 μg/ml) was bound to ELISA plates overnight and used to capture either VEGF or FGF2 (0.2 μg/ml) overnight, followed by 2% BSA for blocking.

VEGF [2] = biological target: T2, VEGF (UniProt P15692-4 27-191, limits assumed); test: bridging ELISA: VEGF captured on heparin-coated plate, antibody, then Flag-FGF2 and HRP-anti-Flag M2; signal needs binding to both VEGF and Flag-FGF2
T2 construct: also called vascular endothelial growth factor; VEGF-A
Method: (§2) Heparin (50 μg/ml) was bound to an ELISA plate overnight and used to capture VEGF (0.2 μg/ml) overnight, followed by 2% BSA for blocking. […] In principle, this assay should only detect bispecific antibody, because any detectable antibody must bind both to the VEGF on the plate in order to be captured and to Flag-FGF2 in solution in order to be detected.

Flag-FGF2 = biological target: T3, Flag-FGF2 (UniProt P09038 135-288, limits assumed); test: as above
T3 construct: Soluble detection reagent in the bridging ELISA; also called Flag peptide linked to FGF2; not shown: Flag peptide
Method: as §2

FGF2 [3] = biological target: T1, FGF2; test: ELISA: FGF2 captured on heparin-coated plate, detected with HRP-goat-anti-human-IgG-Fc
Method: as §1

VEGF [4] = biological target: T2, VEGF; test: ELISA: VEGF captured on heparin-coated plate, detected with HRP-goat-anti-human-IgG-Fc
Method: as §1

T2 sequence (P15692 other isoform, or with tags, fused parts or gaps limits assumed): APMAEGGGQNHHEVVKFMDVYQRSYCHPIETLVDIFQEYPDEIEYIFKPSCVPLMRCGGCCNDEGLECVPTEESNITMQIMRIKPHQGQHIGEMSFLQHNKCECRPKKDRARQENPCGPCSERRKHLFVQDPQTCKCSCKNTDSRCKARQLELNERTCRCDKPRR
T1 sequence (P09038 143-288 limits assumed): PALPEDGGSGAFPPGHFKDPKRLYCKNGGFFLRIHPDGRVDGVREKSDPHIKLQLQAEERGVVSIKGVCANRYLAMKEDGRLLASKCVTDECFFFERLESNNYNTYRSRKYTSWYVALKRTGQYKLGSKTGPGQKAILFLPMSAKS
T3 sequence (P09038 135-288 limits assumed): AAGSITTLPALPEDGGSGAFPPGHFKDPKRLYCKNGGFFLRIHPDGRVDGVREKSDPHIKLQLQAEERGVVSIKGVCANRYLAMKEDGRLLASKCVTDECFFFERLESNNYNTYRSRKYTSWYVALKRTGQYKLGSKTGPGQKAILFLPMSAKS

binding result (FGF2 [1]): binds
binding result (VEGF [2]): no binding (tested: 1 µg/ml)
B1: HuGAL-F2 (antibody, V domains shown)
VH: EVQLVQSGAEVKKPGSSVKVSCKASGYTFTNYVINWVRQAPGQGLEWIGYNDPYNDVSKYNEKFKGRATITSDKSTSTAYMELSSLRSEDTAVYYCAKEGGGKYVYAMDSWGQGTTVTVSS
VL: DIQMTQSPSSLSASVGDRVTITCKASQSVSSDVGWYQQKPGKAPKLLIYSGSNRYSGVPSRFSGSGSGTDFTLTISSLQPEDFATYYCQQDYYSPWTFGQGTKVEIK
notes: also called humanized GAL-F2

binding result (Flag-FGF2): no binding (tested: 1 µg/ml)
B2: Avastin® (bevacizumab) (antibody, V domains shown)
VH: EVQLVESGGGLVQPGGSLRLSCAASGYTFTNYGMNWVRQAPGKGLEWVGWINTYTGEPTYAADFKRRFTFSLDTSKSTAYLQMNSLRAEDTAVYYCAKYPHYYGSSHWYFDVWGQGTLVTVSS
VL: DIQMTQSPSSLSASVGDRVTITCSASQDISNYLNWYQQKPGKAPKVLIYFTSSLHSGVPSRFSGSGSGTDFTLTISSLQPEDFATYYCQQYSTVPWTFGQGTKVEIKR
notes: Humanized anti-VEGF mAb, bivalent; also called Fab-12; F(ab)-12

fold difference of EC50 against HuGAL-F2 (FGF2 [3]): ≤ 4 fold
fold difference of EC50 against Avastin® (VEGF [4]): ≤ 2 fold
B3: X-Ava/F2 (bispecific antibody, human IgG1, kappa)
light 1: DIQMTQSPSSLSASVGDRVTITCKASQSVSSDVGWYQQKPGKAPKLLIYSGSNRYSGVPSRFSGSGSGTDFTLTISSLQPEDFATYYCQQDYYSPWTFGQGTKVEIKRTVAAPSVFIFPPSDEQLKSGTASVVCLLNNFYPREAKVQWKVDNALQSGNSQESVTEQDSKDSTYSLSSTLTLSKADYEKHKVYACEVTHQGLSSPVTKSFNRGEC
heavy 1: not shown
light 2: DIQMTQSPSSLSASVGDRVTITCSASQDISNYLNWYQQKPGKAPKVLIYFTSSLHSGVPSRFSGSGSGTDFTLTISSLQPEDFATYYCQQYSTVPWTFGQGTKVEIKSSASTKGPSVFPLAPSSKSTSGGTAALGCLVKDYFPEPVTVSWNSGALTSGVHTFPAVLQSSGLYSLSSVVTVPSSSLGTQTYICNVNHKPSNTKVDKRVEPKSC
heavy 2: not shown
notes: also called bispecific antibody X-Ava/F2; X-Ava/F2 mAb

Source: patent US20150110788A1 (GALAXY BIOTECH, published 2015)
